Source: patent US7087420B1, “Microbial β-glucuronidase genes, gene products and uses thereof” (Cambia, priority 1997, dated 2006)

Substrate: O=C(O)[C@H]1O[C@@H](Oc2ccc([N+](=O)[O-])cc2)[C@H](O)[C@@H](O)[C@@H]1O
Assay: Kinetics of pNPG hydrolysis by E. coli GUS (spectrophotometric p-nitrophenol release)
Assay type: biochemical, Escherichia coli
Conditions: other: E. coli GUS, substrate pNPG, 37° C., pH 7.0
Method: One such substrate is p-nitrophenyl β-D-glucuronide (pNPG), which when cleaved by GUS releases the chromophore p-nitrophenol. At a pH greater than its pKa (approximately 7.15), the ionized chromophore absorbs light at 400–420 nm, therefore appears in the yellow range of visible light. Briefly, reactions are performed in 50 mM Na3PO4 pH 7.0, 10 mM 2-ME, 1 mM EDTA, 1 mM pNPG, and 0.1% Triton® X-100 at 37° C. The reactions are terminated by the addition of 0.4 ml of 2-amino-2-methylpropanediol, and absorbance measured at 415 nm against a substrate blank. Under these conditions, the molar extinction coefficient of p-nitrophenol is assumed to be 14,000: One unit is defined as the amount of enzyme that produces 1 nmole of product/min at 37° C.
Turnover number is calculated as nmoles of pNPG converted to p-nitrophenol per min per μg of purified protein.

B1: E. coli β-glucuronidase (E. coli GUS, GUS^Eco), wild type, SEQ ID NO: 23 (Escherichia coli K-12) (protein)
chain: MLRPVETPTREIKKLDGLWAFSLDRENCGIDQRWWESALQESRAIAVPGSFNDQFADADIRNYAGNVWYQREVFIPKGWAGQRIVLRFDAVTHYGKVWVNNQEVMEHQGGYTPFEADVTPYVIAGKSVRITVCVNNELNWQTIPPGMVITDENGKKKQSYFHDFFNYAGIHRSVMLYTTPNTWVDDITVVTHVAQDCNHASVDWQVVANGDVSVELRDADQQVVATGQGTSGTLQVVNPHLWQPGEGYLYELCVTAKSQTECDIYPLRVGIRSVAVKGEQFLINHKPFYFTGFGRHEDADLRGKGFDNVLMVHDHALMDWIGANSYRTSHYPYAEEMLDWADEHGIVVIDETAAVGFNLSLGIGFEAGNKPKELYSEEAVNGETQQAHLQAIKELIARDKNHPSVVMWSIANEPDTRPQGAREYFAPLAEATRKLDPTRPITCVNVMFCDAHTDTISDLFDVLCLNRYYGWYVQSGDLETAEKVLEKELLAWQEKLHQPIIITEYGVDTLAGLHSMYTDMWSEEYQCAWLDMYHRVFDRVSAVVGEQVWNFADFATSQGILRVGGNKKGIFTRDRKPKSAAFLLQKRWTGMNFGEKPQQGGKQ
notes: pNPG substrate; functional homotetramer
- Km: 120 μM pNPG μM
- Vmax: 80 nmol/min/µg
